Test [1] deals with T1, full length spike of SARS-CoV (SARS-CoV, UniProt P59594 14-1255).
T1 construct: whole, on cells
Nature of the test: FACS, HEK 293T cells expressing the full length spike, anti-human IgG Fc PE.

Test [2] deals with T2, full length spike of MERS-CoV (MERS-CoV, UniProt K9N5Q8 18-1353).
T2 construct: whole, on cells
The description is as above.

Test [3] has as its target recombinant RBD of the spike protein of SARS-CoV (SARS-CoV, UniProt P59594 306-527). Nature of the test: SPR, RBD on CM5 chip.

T2 sequence (K9N5Q8 18-751, chain 1 of 2): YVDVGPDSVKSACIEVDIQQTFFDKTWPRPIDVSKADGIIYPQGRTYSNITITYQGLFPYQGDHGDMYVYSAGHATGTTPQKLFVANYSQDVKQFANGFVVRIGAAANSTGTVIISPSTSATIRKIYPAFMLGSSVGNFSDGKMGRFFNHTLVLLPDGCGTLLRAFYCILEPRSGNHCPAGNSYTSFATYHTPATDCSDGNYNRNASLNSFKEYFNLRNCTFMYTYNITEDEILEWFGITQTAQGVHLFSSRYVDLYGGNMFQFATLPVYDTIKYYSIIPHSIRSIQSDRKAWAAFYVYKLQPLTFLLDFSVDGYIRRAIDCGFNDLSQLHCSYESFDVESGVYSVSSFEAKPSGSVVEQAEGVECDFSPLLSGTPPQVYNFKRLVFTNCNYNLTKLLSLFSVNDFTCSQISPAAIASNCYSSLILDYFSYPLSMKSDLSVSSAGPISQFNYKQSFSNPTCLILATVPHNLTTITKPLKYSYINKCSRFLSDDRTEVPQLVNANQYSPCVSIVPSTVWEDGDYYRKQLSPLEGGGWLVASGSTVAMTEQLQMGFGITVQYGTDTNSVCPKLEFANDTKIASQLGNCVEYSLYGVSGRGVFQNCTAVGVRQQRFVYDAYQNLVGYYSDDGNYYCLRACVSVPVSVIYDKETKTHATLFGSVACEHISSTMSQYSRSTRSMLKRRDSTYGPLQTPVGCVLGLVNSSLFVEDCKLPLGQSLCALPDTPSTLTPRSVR
T2 sequence (K9N5Q8 752-1353, chain 2 of 2): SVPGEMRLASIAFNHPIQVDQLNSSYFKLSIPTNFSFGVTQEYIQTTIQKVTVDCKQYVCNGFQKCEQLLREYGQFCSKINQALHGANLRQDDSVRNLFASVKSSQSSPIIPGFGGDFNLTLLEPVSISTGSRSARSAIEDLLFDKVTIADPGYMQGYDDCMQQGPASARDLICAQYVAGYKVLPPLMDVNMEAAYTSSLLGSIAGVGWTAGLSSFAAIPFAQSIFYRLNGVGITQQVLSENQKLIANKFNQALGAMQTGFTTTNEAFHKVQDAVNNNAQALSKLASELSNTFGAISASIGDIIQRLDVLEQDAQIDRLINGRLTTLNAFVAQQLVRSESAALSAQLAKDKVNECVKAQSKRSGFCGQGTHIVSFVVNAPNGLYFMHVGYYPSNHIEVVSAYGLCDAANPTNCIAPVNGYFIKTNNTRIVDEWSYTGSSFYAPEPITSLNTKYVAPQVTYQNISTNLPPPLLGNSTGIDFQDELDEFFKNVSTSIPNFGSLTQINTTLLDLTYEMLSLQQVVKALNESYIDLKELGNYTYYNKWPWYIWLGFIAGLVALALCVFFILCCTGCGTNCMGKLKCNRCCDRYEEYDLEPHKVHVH

B1: P1A-1C10 (antibody, V domains shown)
VH: QVQLVQSGAEVKNPGSSVKVSCKAGGGTSSFYDINWVRQAPGQGLEWIGKIIPRLDIADYAQKSQGRVTITADKSTSTVYLELSSLKSDDTAVYFCARGRPGSEWAYGPFDLWGQGTLVTVSS
VL: DIQMTQSPSTLSASVGDRVTITCRASQSSRAWLAWYQQKPGKAPKLLISKASSLESGVPSRFSGSGYGTEFTLTISSLQPDDSATYYCHQYNSSPFTFGPGTKVQIKR
notes: human IgG1, kappa
As to B1, the binding result was “no binding (tested: 20 µg/ml)” in test [1], “no binding (tested: 20 µg/ml)” in test [2] and “no binding (tested: not printed)” in test [3].

Source of the values: patent publication US20210292392A1 (TSB THERAPEUTICS BEIJING, published 2021).
